The results in this text go back to patent US20210324050A1 (published 2021).

For assay [1], the target named is GI.3 (norovirus GI.3). In words: ELISA.
Assay [2] concerns the target GII.13 (norovirus GII.13). The assay is described as follows: ELISA. For orientation: In an ELISA, binding on a coated surface is turned into a signal by an enzyme label.
Assay [3] concerns the target GII.3 (norovirus GII.3). In words: ELISA.
The target of assay [4] is GII.17 (norovirus GII.17). In words: ELISA.
Assay [5] addresses GII.6 Protruding (norovirus GII.6). The assay is described as follows: ELISA.
Assay [6] concerns the target GII.6 Shell (norovirus GII.6). The assay is described as follows: ELISA.
For assay [7], the target named is GI.3 Shell (norovirus GI.3). The assay is described as follows: ELISA.
In assay [8] the target is GI.3 Protruding (norovirus GI.3). The assay is described as follows: ELISA.
Assay [9] concerns the target GII.17 Shell (norovirus GII.17). The assay is described as follows: ELISA.
Assay [10] has as its target GII.17 Protruding (norovirus GII.17). The assay is described as follows: ELISA.
Assay [11] deals with T1, GI.1 (M87661) VLPs (UniProt Q83884 1-530; Q83885 1-212).
T1 VP1: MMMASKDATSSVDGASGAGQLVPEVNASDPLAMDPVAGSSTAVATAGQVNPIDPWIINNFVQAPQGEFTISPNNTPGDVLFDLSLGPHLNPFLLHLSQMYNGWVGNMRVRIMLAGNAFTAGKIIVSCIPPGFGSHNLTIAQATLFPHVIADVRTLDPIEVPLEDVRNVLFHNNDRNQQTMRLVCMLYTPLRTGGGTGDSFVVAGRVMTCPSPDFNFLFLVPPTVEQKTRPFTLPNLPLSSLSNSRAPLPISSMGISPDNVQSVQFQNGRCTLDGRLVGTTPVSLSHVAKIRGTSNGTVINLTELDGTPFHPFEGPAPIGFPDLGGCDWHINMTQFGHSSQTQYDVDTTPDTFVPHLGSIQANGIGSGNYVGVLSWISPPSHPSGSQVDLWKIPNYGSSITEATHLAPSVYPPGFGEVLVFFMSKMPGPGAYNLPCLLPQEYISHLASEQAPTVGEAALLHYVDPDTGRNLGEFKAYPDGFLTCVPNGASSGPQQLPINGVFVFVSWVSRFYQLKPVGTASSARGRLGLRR
T1 VP2: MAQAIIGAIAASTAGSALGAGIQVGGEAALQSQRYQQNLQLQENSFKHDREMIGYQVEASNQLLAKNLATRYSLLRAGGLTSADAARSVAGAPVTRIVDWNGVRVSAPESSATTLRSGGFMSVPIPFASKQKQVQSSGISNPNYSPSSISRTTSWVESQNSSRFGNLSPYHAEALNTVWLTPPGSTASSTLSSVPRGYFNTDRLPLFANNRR
The assay is described as follows: ELISA.

Assay [12] concerns the target GI.2 (AF435807) VLPs (norovirus GI.2). In words: ELISA.
The target in assay [13] is GII.6 (AF414410) VLPs (norovirus GII.6). The assay is described as follows: ELISA.
For assay [14] the target is unchanged. The assay is described as follows: VLP-PGM blockade.
The target in assay [15] is GII.6 (norovirus GII.6). In words: ELISA.
The target in assay [16] is T2, GII.4 Houston 2002 VLP (UniProt P54635 1-539). In words: ELISA binding.
The target of assay [17] is GII.4 (UniProt P54635 1-538). The assay is described as follows: VLP-PGM blockade.
The target of assay [18] is GII.6 (norovirus GII.6). The assay is described as follows: VLP-PGM blockade.
The target of assay [19] is Protruding domain. The assay is described as follows: ELISA.
For assay [20], the target named is T3, Shell domain (UniProt P54635 1-221).
T3 chain: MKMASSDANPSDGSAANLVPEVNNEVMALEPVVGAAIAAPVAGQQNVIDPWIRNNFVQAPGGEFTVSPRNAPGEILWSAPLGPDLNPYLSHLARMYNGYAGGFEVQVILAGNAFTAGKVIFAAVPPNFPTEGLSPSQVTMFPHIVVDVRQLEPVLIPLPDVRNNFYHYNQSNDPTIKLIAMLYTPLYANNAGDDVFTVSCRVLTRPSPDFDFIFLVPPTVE
In words: ELISA.

The target in assay [21] is GII.4 Protruding. In words: ELISA.
The target of assay [22] is T2, GII.4 Houston 2002 VLP. In words: VLP blockade.

B1: 168.2 (antibody, V domains shown)
VH: QVQLVESGGGVVQPGRSLRLSCAASGFTFSSYAMHWVRQAPGKGLEWVAVISYDGSNKYYADSVKGRFTISRDNSKNTLYLQMNSLRAEDTAVYYCARSVIGYYYYGMDVWGQGTLVTVSS
VL: QPVLTQPPSASASLGASVTLTCTLSSGYSNYKVDWYQQRPGKGPRFVMRVGTGGIVGSKGDGIPDRFSVLGSGLNRYLTIKNIQEEDESDYHCGADHGSGILFGGGTKLTVL
By EC50 is commonly meant the concentration at which the effect is half-maximal. The low end stands for an effect from little substance, the high end for a need for much substance. On to B1, for which the EC50 in assay [1] worked out at 8 nM; in [2] it was 107 nM; in assay [3], 224 nM; in assay [4], 153 nM; in [5], 135 nM; in [6] it was 162 nM. The EC50 in assay [7] was 37 nM; in assay [8], 143 nM; in [9] it was 183 nM; in assay [10] it was 390 nM.

B2: NORO-156.3 (antibody, V domains shown)
VH: QVQLQQWGAGLLKPSETLSLTCAVYGGSFSGYYWSWIRQPPGKGLEWIGEINHSGSTNYNPSLKSRVTISVDTSKNQFSLKLSSVTAADTAVYYCARGLMDVWGQGTLVTVSS
VL: AIRMTQSPSSFSASTGDRVTITCRASQGISSYLAWYQQKPGKAPKLLIYAASTLQSGVPSRFSGSGSGTDFTLTISCLQSEDFATYYCQQYYSYPRTFGQGTKLEIK
In the case of B2, the EC50 was found to be 42 nM in [11], 175 nM in assay [12], 39 nM in assay [13] and 355 nM in assay [14].

B3: 232A.2 (antibody, V domains shown)
VH: QVQLKQWGAGLLKSSETLSLTCAFNGNSFGAFYWSWIRLSPGKGLEWIGEVNYLGGADYNPSLKSRVTMSADTSKRQFSLSLKSVTAADTGVYFCARGRPHDYSPGSYSRPRRYYGLDVWGQGTTVTVSS
VL: EIVLTQSPATLSLSPGDSATLSCRASQAVSTTYLAWYQQTRGQAPRLLIHGTYTRAIGIPDKFSGTGSGTDFTLTISGLAPEDFAVYYCQQYSSSPYTFGQGTKIEIT
Regarding B3, the EC50 was determined as 2 nM in [2]; 1 nM in assay [3]; 1 nM in [15]; 0.2 µg/mL in assay [16]; 115 nM in [17]; 20 nM in assay [18]. Also, the EC50 in assay [19] turned out to be 0.4 µg/mL; in assay [20], 38.1 µg/mL; in assay [5] it was 2 nM; in [21], 3 nM; in [10], 2 nM; in assay [22], 5.4 µg/mL.
